Laboratory results taken from the Immune Epitope Database (IEDB).

Key:
Experiment in all cases: IEDB peptide-MHC binding, purified MHC/competitive/radioactivity; filed as Kd, often an IC50 or EC50 that approximates it; ≥ and ≤ were set here for values at or beyond the usual limits of such assays
HLA-A*03:01 = molecular target: HLA-A*03:01
HLA-A*33:01 = molecular target: HLA-A*33:01
HLA-A*31:01 = molecular target: HLA-A*31:01
HLA-A*68:01 = molecular target: HLA-A*68:01
HLA-A*11:01 = molecular target: HLA-A*11:01
HLA-A*02:01 = molecular target: HLA-A*02:01
HLA-B*35:01 = conditions: source organism: Plasmodium falciparum 3D7
HLA-B*51:01 = conditions: source organism: Plasmodium falciparum 3D7
HLA-B*07:02 = conditions: source organism: Plasmodium falciparum 3D7
HLA-B*53:01 = conditions: source organism: Plasmodium falciparum 3D7
HLA-B*54:01 = conditions: source organism: Plasmodium falciparum 3D7
HLA-A*02:03 = conditions: source organism: Plasmodium falciparum
HLA-A*68:02 = conditions: source organism: Plasmodium falciparum
HLA-A*02:02 = conditions: source organism: Plasmodium falciparum
HLA-A*02:06 = conditions: source organism: Plasmodium falciparum
[1] = source organism: Plasmodium falciparum 3D7
[2] = source organism: Plasmodium falciparum

Sequence	Kd (HLA-A*03:01; [2])	Kd (HLA-A*11:01; [2])	Kd (HLA-A*33:01; [2])	Kd (HLA-A*31:01; [2])	Kd (HLA-A*68:01; [2])	other results
ALLACAGLAY						Kd (HLA-A*03:01; [1]): 355 nM; Kd (HLA-A*33:01; [1]): 5090 nM; Kd (HLA-A*31:01; [1]): 5460 nM; Kd (HLA-A*68:01; [1]): ≥ 10000 nM
FILVNLLIFH	733 nM	1330 nM	397 nM	1960 nM		
FLIFFDLFLV						Kd (HLA-A*02:01; [1]): 12 nM
FLKENKLNK	145 nM	3750 nM	2640 nM	≥ 10000 nM	444 nM	
GLIMVLSFL						Kd (HLA-A*02:01; [2]): 22 nM
GTGSGVSSK	126 nM	40 nM	≥ 10000 nM	≥ 10000 nM	3480 nM	
GTGSGVSSKK	1100 nM	353 nM	≥ 10000 nM	≥ 10000 nM	≥ 10000 nM	
GVSENIFLK	151 nM	5 nM	8290 nM	2250 nM	10 nM	
HPSDGKCNL						Kd (HLA-B*35:01): ≥ 10000 nM; Kd (HLA-B*51:01): ≥ 10000 nM; Kd (HLA-B*07:02): 275 nM; Kd (HLA-B*53:01): 3320 nM; Kd (HLA-B*54:01): ≥ 10000 nM
HVLSHNSYEK	407 nM	200 nM	≥ 10000 nM	≥ 10000 nM		
IIRLHSDASK						Kd (HLA-A*03:01; [1]): 324 nM; Kd (HLA-A*11:01; [1]): ≥ 10000 nM; Kd (HLA-A*33:01; [1]): ≥ 10000 nM; Kd (HLA-A*31:01; [1]): ≥ 10000 nM; Kd (HLA-A*68:01; [1]): ≥ 10000 nM
ILSVSSFLFV						Kd (HLA-A*02:03): 19 nM; Kd (HLA-A*68:02): 2100 nM; Kd (HLA-A*02:02): 3580 nM; Kd (HLA-A*02:06): 587 nM
KILSVFFLA	18 nM	3.2 nM	5920 nM	7830 nM	8890 nM	Kd (HLA-A*02:06): 8 nM
KSLYDEHIK	≥ 10000 nM	231 nM	≥ 10000 nM	≥ 10000 nM	≥ 10000 nM	
KSLYDEHIKK	1000 nM	29 nM	≥ 10000 nM	≥ 10000 nM	≥ 10000 nM	
LLACAGLAY						Kd (HLA-A*33:01; [1]): 6590 nM; Kd (HLA-A*31:01; [1]): ≥ 10000 nM; Kd (HLA-A*68:01; [1]): 2500 nM
RINEEKHEK	786 nM	40 nM	≥ 10000 nM	486 nM	≥ 10000 nM	
RLHSDASKNK						Kd (HLA-A*03:01; [1]): 256 nM; Kd (HLA-A*11:01; [1]): 600 nM; Kd (HLA-A*33:01; [1]): ≥ 10000 nM; Kd (HLA-A*31:01; [1]): ≥ 10000 nM; Kd (HLA-A*68:01; [1]): ≥ 10000 nM
SLLSTNLPY						Kd (HLA-A*03:01; [1]): 1150 nM; Kd (HLA-A*11:01; [1]): 353 nM; Kd (HLA-A*33:01; [1]): ≥ 10000 nM; Kd (HLA-A*31:01; [1]): ≥ 10000 nM; Kd (HLA-A*68:01; [1]): ≥ 10000 nM
SLYDEHIKK	28 nM	8.6 nM	≥ 10000 nM	≥ 10000 nM	615 nM	
TPYAGEPAPF						Kd (HLA-B*51:01): 15 nM; Kd (HLA-B*53:01): 158 nM; Kd (HLA-B*54:01): ≥ 10000 nM
VLLGGVGLVL						Kd (HLA-A*02:02): ≥ 10000 nM
VLSHNSYEK	79 nM	19 nM	≥ 10000 nM	≥ 10000 nM	2860 nM	
VLYNTEKGR	282 nM	3160 nM		8570 nM	1230 nM	
VTCGNGIQVR	6880 nM	11 nM		15 nM	444 nM	
